Consider 18 molecules from patent US20250084155A1 (University of Texas, published 2025).

Assay [1] has as its target T1, HSP70 (human HSP70; the antigen of the binning, humanization and variant binding assays) (human, UniProt P0DMV8 1-641, limits assumed).
T1 construct: also called hu HSP70
The experiment in a line: BLI, anti-human Fc capture, antigen 100 nM. On the procedure: Binding assays were performed as follows. Antibody variants were immobilized using anti-human Fc onto the surface of a series of biosensors at […]. Antigen, at 100 nM, was passed over the surface to generate a binding response. Binding data for the antibody:antigen interactions were collected at 25° C. on the biosensors. In Table 14, X=610 represents captured antigen value (nM) at the beginning of the dissociation phase (measured at 610 seconds after the biosensor was initially contacted with antigen) and X=1495 represents captured antigen value (nM) at the end of the dissociation phase (measured at 1495 seconds after the biosensor was initially contacted with antigen). In Table 14, antibodies with an X=610 value greater than 0.2 and a % dissociation less than 10% are shown in bold.

For assay [2], the target named is T1, HSP70 (human HSP70; the antigen of the …). Kind of assay: BLI, antibody on sensor. On the procedure:
Humanized variants were characterized for binding using biolayer interferometry (BLI). Chimeric antibodies including the murine 77A antigen binding region and human Fe regions were also tested. Antibodies and reagents were diluted out onto microwell plates and loaded into the instrument. Diluted antibodies were first immobilized onto dip-and-read sensors, and then measurements for baselines were acquired. Subsequently, the sensors were dipped into wells containing the antigen in solution, or buffer alone. The change in number of molecules bound to the sensor was quantified by measurement of the shift in the interference pattern of light during each step of the protocol. Mathematical modeling was performed based on those values and the concentrations of reagents used in the assay and used to calculate kinetics values.
For orientation: In BLI a coated tip is dipped into the sample, and binding shifts an interference pattern.

T1 sequence (P0DMV8 whole entry, change not shown): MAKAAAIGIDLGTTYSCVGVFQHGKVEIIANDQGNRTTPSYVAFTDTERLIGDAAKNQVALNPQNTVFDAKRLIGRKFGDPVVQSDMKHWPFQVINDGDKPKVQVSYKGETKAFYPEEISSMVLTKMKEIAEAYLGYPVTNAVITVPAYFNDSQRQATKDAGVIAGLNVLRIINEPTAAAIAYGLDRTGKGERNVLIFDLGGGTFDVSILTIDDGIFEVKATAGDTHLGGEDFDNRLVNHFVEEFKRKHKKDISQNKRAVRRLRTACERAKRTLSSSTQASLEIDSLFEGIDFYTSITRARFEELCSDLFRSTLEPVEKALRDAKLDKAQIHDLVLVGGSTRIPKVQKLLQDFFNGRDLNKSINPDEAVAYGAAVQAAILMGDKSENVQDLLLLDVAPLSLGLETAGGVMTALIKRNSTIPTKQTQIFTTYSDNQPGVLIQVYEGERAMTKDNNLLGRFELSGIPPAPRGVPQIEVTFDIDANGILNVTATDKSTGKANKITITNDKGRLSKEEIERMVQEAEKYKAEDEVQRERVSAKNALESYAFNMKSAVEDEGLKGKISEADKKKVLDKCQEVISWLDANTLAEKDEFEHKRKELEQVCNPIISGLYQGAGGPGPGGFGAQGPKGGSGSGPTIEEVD

B1: h77A-1.72 (antibody, V domains shown)
VH: QIQLVQSGPEVKKPGASVKVSCKASGYIFTNYGMNWVRQAPGQGLEWMGWINTYTGETTYADDFKGRFTFTTDTSTTTVYMELRSLRSDDTAVYFCARYDHAMDYWGQGTLVTVSS
VL: EIVLTQSPDSLAVSLGERATINCKSSQSLLNSGTRKNYLAWYQQKAGQSPKLLIYWTSTRESGVPDRFSGSGSGTDFTLTIDSLQAEDVAVYYCKQSYTLYTFGGGTKVEIK
notes: captured by anti-human Fc
B1: the “% Diss” value in assay [1] was determined as 31.5%.

B2: h77A-3 (antibody, V domains shown)
VH: QIQLVQSGAEVKKPGASVKVSCKASGYTFTNYGMNWVRQAPGQGLEWMGWINTYTGEPTYADDFKGRFTFTTDTSTSTAYMELRSLRSDDTAVYFCARYDHAMDYWGQGTLVTVSS
VL: DVVMTQSPDSLAVSLGERVTINCKSSQSLLNSGTRKNYLAWYQQKPGQSPKLLIYWTSTRESGVPDRFSGSGSGTDFTLTISSLQAEDVAVYYCKQSYTLYTFGQGTKLEIK
In assay [2], B2 came in with a dissociation constant Kd of 4.9 nM, an off-rate (koff) of 0.000305 s⁻¹ and a kon of 62300 M⁻¹ s⁻¹.

B3: h77A-1.76 (antibody, V domains shown)
VH: QIQLVQSGVEVKKPGASVKVSCKASGYTFTNYGMNWVRQAPGQGLEWMGWINTYTGETTYADDFKGRFTFTTDTSTSTAYMEVRSLRSDDTAVYFCARYDHAMDYWGQGTLVTVSS
VL: EIVLTQSPDSLAVSLGERATINCKSSQSLFNSGTRKNYLAWYQQKAGQSPKLLIYWTSTRESGVPDRFSGSGSGTDFTLSIDSLQAEDVAVYYCKQSYTLYTFGGGTKVEIK
notes: captured by anti-human Fc
On to B3, for which, in assay [1], the “% Diss” value was determined as 12.1%.

B4: h77A-1.79 (antibody, V domains shown)
VH: QIQLVQSGAEVKKPGASVKVSCKASGYTFTKYGMNWVRQAPGQGLEWMGWINTYTGEPRYADDFKGRFTFTTDTSTSTAYMELRSLRSDDTAVYFCARYDHRMDYWGQGTLVTVSS
VL: EIVLTQSPDSLAVSLGERATINCKSSQSLLNSGTRKNYLAWYQQKPGQSPKLLIYWTSTRESGVPDRFSGSGSGTDFTLTIDSLQAEDVAVYYCKQSYNLYTFGGGTKVEIK
notes: captured by anti-human Fc
In the case of B4, in assay [1], the “% Diss” value is -37.4%.

B5: h77A-1.81 (antibody, V domains shown)
VH: QIHLVQSGAEVKKPGASVKVSCKASGYIFTNYGMNWVRQAPGQGLEWMGWINTYTGEPTYADDFKGRFTFTTDTSTSTVYMELRSLRSDDTAVYFCVRYDHAMDYWGQGTLVTVSS
VL: EIVLTQSPDSLAVSLGERATINCKSSQSLFNSGTRKNYLAWYQQKAGQSPKLLIYWTSTRESGVPDRFSGSGSGTDFTLTIDSLQAEDVAVYYCKQSYTLYTFGGGTKVEIK
notes: captured by anti-human Fc
For the molecule B5, the “% Diss” value in assay [1] turned out to be 30.1%.

B6: h77A-1.86 (antibody, V domains shown)
VH: QIQLVQSGVEVKKPGASVKVSCKASGYTFTNYGMNWVRQAPGQGLEWMGWINTYTGETTYADDFKGRFTFTTDTSTSTAYMELRSLRSDDTAVYFCARYDHAMDYWGQGTLVTVSS
VL: EIVLTQSPDSLAVSLGERATINCKSSQSLFNSGTRKNYLAWYQKKAGQSPKLLIYWTSTRESGVPDRFSGSGSGTDFTLSIDRLQAEDVAVYYCKQSYTLYTFGGGTKVEIK
notes: captured by anti-human Fc
Regarding B6, the “% Diss” value in assay [1] worked out at 14.1%.

B7: h77A-1.85 (antibody, V domains shown)
VH: QIHLVQSGAEVKKPGASVKVSCKASGYIFTNYGMNWVRQAPGQGLEWMGWINTYTGEPTYADDFKGRFTFTTDTSTSTAYMELRSLRSDDTAVYFCVRYDHAMDYWGQGTLVTVSS
VL: EIVLTQSPDSLAVSLGERATINCKSSQSLLNSGTRKNYLSWYQKKSGQSPKLLIYWTSTRESGVPDRFSGSGSGTDFTLTIDSLQAEDVAVYYCKQSYTLYTFGGGTKVEIK
notes: captured by anti-human Fc
For B7, in assay [1], the “% Diss” value is 16.1%.

B8: h77A-1.80 (antibody, V domains shown)
VH: QIQLVQSGAEVKKPGASVKVSCKASGYTFTNYGMNWVRQAPGQGLEWMGWINTYTGEPKYADDFKGRFTFTTDTSTSTAYMELRSLRSDDTAVYFCARYDHVMDYWGQGTLVTVSS
VL: EIVLTQSPDSLAVSLGERATINCKSSQSLLNSGTRKNYLSWYQQKPGQSPKLIIYWTSTRESGVPDRFSGSGSGTDFTLTIDSLQAEDVAVYYCKQSYTLYTFGGGTKVEIK
notes: captured by anti-human Fc
With B8, the “% Diss” value in assay [1] was -8.84%.

B9: h77A-6 (antibody, V domains shown)
VH: QIQLVQSGAEVKKPGSSVKVSCKASGYTFTNYGMNWVRQAPGQGLEWMGWINTYTGEPTYADDFKGRFTFTADESTSTAYMELSSLRSEDTAVYFCARYDHAMDYWGQGTLVTVSS
VL: EIVLTQSPDSLAVSLGERATINCKSSQSLLNSGTRKNYLAWYQQKAGQSPKLLIYWTSTRESGVPDRFSGSGSGTDFTLTIDSLQAEDVAVYYCKQSYTLYTFGGGTKVEIK
B9: in assay [2], the Kd worked out at 2.64 nM, the off-rate constant (koff) came out at 0.00014 s⁻¹ and the association rate constant (kon) came out at 53100 M⁻¹ s⁻¹.

B10: h77A-1.97 (antibody, V domains shown)
VH: QIQLVQSGAEVKKPGASVKVSCKASGYTFTNYGMNWVRQAPGQGLEWMGWINTYTGEPTYADDFKGRFTMTTDTSTSTAYMELRSLRSDDTAVYFCARYDHAMDYWGQGTLVTVSS
VL: DIVMTQSPDSLAVSLGERATINCKSSQSLLNSGTRKNYLAWYQQKPGQSPKLLIYWTSTRESGVPDRFSGSGSGTDFTLTISSLQAEDVAVYYCKQSYTLYTFGQGTKLEIK
notes: captured by anti-human Fc
With B10, in assay [1], the “% Diss” value was 27.2%.

B11: h77A-10 (antibody, V domains shown)
VH: QIQLVQSGAEVKKPGSSVKVSCKASGYTFTNYGMNWVRQAPGQGLEWMGWINTYTGEPTYADDFKGRFTFTADESTSTAYMELSSLRSEDTAVYFCARYDHAMDYWGQGTLVTVSS
VL: DIVMTQSPDSLAVSLGERATINCKSSQSLLNSGTRKNYLAWYQQKPGQSPKLLIYWTSTRESGVPDRFSGSGSGTDFTLTISSLQAEDVAVYYCKQSYTLYTFGGGTKLEIK
Consider B11, for which, in assay [2], binding was put at a Kd of 7.1 nM, the koff is 0.000409 s⁻¹ and the kon amounted to 57700 M⁻¹ s⁻¹.

B12: h77A-1.77 (antibody, V domains shown)
VH: QIQLVQSGPEVKKPGASVKVSCKASGYIFTNYGMNWVRQAPGQGLEWMGWINTYTGEPTYGDDFKGRFTFTTDTSTSTAYMELRSLRSDDTAVYFCGRYDHAMDYWGQGTLVTVSS
VL: EIVLTQSPDSLAVSLGERATINCKSSQSLLNSGTRKNYLAWYQQKAGQSPKLLIYWTSTRESGVPDRFSGSGSGTDFTLTIDRLQAEDVAVYYCKQSYTLYTFGGGTKVEIK
notes: captured by anti-human Fc
Consider B12, for which the “% Diss” value in assay [1] was determined as 32.5%.

B13: h77A-1.91 (antibody, V domains shown)
VH: QIHLVQSGAEVKKPGASVKVSCKASGYIFTNYGMNWVRQAPGQGLEWMGWINTYTGEPTYADDFKGRFTFTTDTSTSTVYMELRSLRSDDTAVYFCVRYDHAMDYWGQGTLVTVSS
VL: EIVLTQSPDSLSVSLGERATINCKSSQSLFNSGTRKNYLAWYQQKAGQSPKLLIYWTSTRESGVPDRFSGSGSGTDFTLTIDSLQAEDVAVYYCKQSYTLYTFGGGTKVEIK
notes: captured by anti-human Fc
In the case of B13, the “% Diss” value in assay [1] was 30.7%.

B14: h77A-2 (antibody, V domains shown)
VH: QIQLVQSGAEVKKPGASVKVSCKASGYTFTNYGMNWVRQAPGQGLEWMGWINTYTGEPTYADDFKGRFTFTTDTSTSTAYMELRSLRSDDTAVYFCARYDHAMDYWGQGTLVTVSS
VL: DIVMTQSPDSLSVSLGERATINCKSSQSLLNSGTRKNYLAWYQQKPGQPPRLLIYWTSTRESGVPDRFSGSGSGTDFTLTINTLQAEDVAVYYCKQSYTLYTFGQGTKLEIK
In assay [2], B14 gave a Kd of 5.13 nM, a koff of 0.000308 s⁻¹ and an on-rate (kon) of 59900 M⁻¹ s⁻¹.

B15: h77A-1.98 (antibody, V domains shown)
VH: QIQLVQSGAEVKKPGASVKVSCKASGYTFTNYGMNWVRQAPGQGLEWMGWINTYTGEPTYADDFKGRFTMTTDTSTSTAYMELRSLRSDDTAVYFCARYDHAMDYWGQGTLVTVSS
VL: EIVLTQSPDSLAVSLGERATINCKSSQSLLNSGTRKNYLAWYQQKAGQSPKLLIYWTSTRESGVPDRFSGSGSGTDFTLTIDSLQAEDVAVYYCKQSYTLYTFGGGTKVEIK
notes: captured by anti-human Fc
On to B15, for which the “% Diss” value in assay [1] worked out at 34.5%.

B16: h77A-1.96 (antibody, V domains shown)
VH: QIQLVQSGAEVKKPGASVKVSCKASGYTFTNYGMNWVRQAPGQGLEWMGWINTYTGEPTYADDFKGRFTFTTDTSTSTAYMELRSLRSDDTAVYFCARYDHAMDYWGQGTLVTVSS
VL: DIVMTQSPDSLAVSLGERATINCKSSQSLLNSGTRKNYLAWYQQKPGQSPKLLIYWTSTRESGVPDRFSGSGSGTDFTLTISSLQAEDVAVYYCKQSYTLYTFGQGTKLEIK
notes: captured by anti-human Fc
In the case of B16, the “% Diss” value in assay [1] was found to be 18.8%.

B17: h77A-1.92 (antibody, V domains shown)
VH: QIQLVQSGAEVKKPGASVKVSCKASGYSFTNYGMNWVRQAPGQGLEWMGWINTYTGEPTYGDDFKGRFTFTTDTSTSTAYMELRSLRSDDTAVYFCARYDHAMDYWGQGTLVTVSS
VL: EIVLTQSPDSLTVSLGERATINCKSSQSLFNSGTRKNYLAWYQKKAGQSPKLLIYWTSTRESGVPDRFSGSGSGTDFTLTIDSLQAEDVAVYYCKQSYNLYTFGGGTKVEIK
notes: captured by anti-human Fc
B17: the “% Diss” value in assay [1] was 32.4%.

B18: h77A-5 (antibody, V domains shown)
VH: QIQLVQSGAEVKKPGASVKVSCKASGYTFTNYGMNWVRQAPGQGLEWMGWINTYTGEPTYADDFKGRFTFTTDTSTSTAYMELRSLRSDDTAVYFCARYDHAMDYWGQGTLVTVSS
VL: DIVMTQSPDSLAVSLGERATINCKSSQSLLNSGTRKNYLAWYQQKPGQSPKLLIYWTSTRESGVPDRFSGSGSGTDFTLTISSLQAEDVAVYYCKQSYTLYTFGGGTKLEIK
In assay [2], B18 had a Kd of 6.87 nM, an off-rate constant (koff) of 0.000353 s⁻¹ and an association rate constant (kon) of 51400 M⁻¹ s⁻¹.

A word on the Kd: it is the concentration at which binding is half-saturated. The term koff denotes a measure of how fast the partners let go of each other. High values mean fast dissociation, low ones slow dissociation. Usually kon stands for the rate constant with which the complex forms. Read a low kon as slow association.
